Experimental data as given in patent publication EP4636087A1, “ANTI-GPA33 ANTIBODY AND UTILIZATION THEREOF” (Kagoshima University, priority 2022, dated 2024).

What was measured:
Wnt/β-catenin signal [1] = experiment: Wnt/β-catenin reporter EC50 in 293STF cells expressing GPA33; format: cell-based, human
Protocol: (§1) The Wnt/β-catenin signal promoting activity of the anti-GPA33 antibody scFv-Rspo fragment fusion recombinant prepared in Example 18 was measured as follows. ONE-Glo™ + Tox Luciferase Reporter and Cell Viability Assay (Promega) was used for the measurement. […] The cells into which each vector was introduced were cultured for 2 days in DMEM medium containing 10% FBS (Nichirei), and then the cells were collected and seeded at 100 µL/well on a CulturPlate-96 (PerkinElmer). The next day, 100 µL of (1) control medium or (2) medium containing recombinant Rspo1FL-Fc or various anti-GPA33 antibody scFv-Rspo fragment fusion recombinant proteins prepared in Example 10 (10-fold serial dilution between 10000 and 0.001 ng/mL, final concentration 5000 to […]) was added to each well. […] The fluorescence value was measured using a Microplate Reader SH-9000 (CORONA). 100 µL of ONE-Glo (trademark) Reagent (Promega) was added to the plate and incubated at room temperature for 3 min, after which the luminescence value was measured using a NIVO microplate reader (PerkinElmer). […] Samples with low activity for which the EC50 value could not be determined were marked NC. […]
(§2) The Wnt/β-catenin signal promoting activity of the anti-GPA33 antibody scFv-Rspo fragment-Fc conjugate R1CRD-hFcm-tCAP-G17 prepared in Example 19 was measured as shown in Example 20. […]

Wnt/β-catenin signal [2] = experiment: Wnt/β-catenin reporter EC50 in 293STF cells expressing MOG; format: cell-based, human; conditions: NC = low activity, EC50 could not be determined (taken as >30 nM for the ratio)
Protocol: as §1, §2

[3] = test system: Mouse small intestinal organoids; experiment: Mouse small intestinal organoid culture; format: cell-based; design: key: those in which clear proliferation was observed are indicated with ○; those in which proliferation was observed but to a weak extent are indicated with △; those in which no proliferation was observed are indicated with ×
Protocol: Mouse small intestinal organoid culture using anti-GPA33 antibody scFv-Rspo fragment fusion (Example 18) and anti-GPA33 antibody scFv-Rspo fragment-Fc conjugate (Example 19) was performed as shown below. Mouse small intestinal organoids (VERITAS ST-70931) were maintenance cultured in ENR medium obtained by adding 2 µg/mL of the recombinant Rspo1FL-Fc prepared in Example 10 to EN medium (DMEM/F-12 containing penicillin/streptomycin, 10 mM HEPES, GlutaMAX, 1xN2, 1xB27 (all Gibco), 1 mM N-acetylcysteine (FUJIFILM Wako Pure Chemical), 50 ng/mL mouse EGF (Gibco), and 100 ng/mL mouse Noggin (PEPROTECH)), or ENR+WA medium (DMEM/F-12 containing penicillin/streptomycin, 10 mM HEPES, GlutaMAX, 1xN2, 1xB27 (all Gibco), […] N-acetylcysteine (FUJIFILM Wako Pure Chemical), 50 ng/mL mouse EGF (Gibco), and 100 ng/mL mouse Noggin (PEPROTECH), 10% Afamin/Wnt3a CM (MBL), and 500 nM A-83-01 (FUJIFILM Wako Pure Chemical)). Mouse small intestinal organoids were collected with Gentle Cell Dissociation Reagent (STEMCELL), resuspended in EN medium and Matrigel (Corning), and seeded onto 48-well plates. 250 µL of (1) EN medium, (2) EN medium containing recombinant Rspo1FL-Fc (20 ng/mL or 1 µg/mL) prepared in Example 10, or (3) EN medium containing anti-GPA33 antibody scFv-Rspo fragment fusion or anti-GPA33 antibody scFv-Rspo fragment-Fc conjugate ([…]) was added to each well. The medium was changed once every three days, and the cells were cultured for six days.
Comparing organoids on the first day (Day 1) and the fifth day (Day 5) after seeding, those in which clear proliferation was observed are indicated with ○, those in which proliferation was observed but to a weak extent are indicated with △, and those in which no proliferation was observed are indicated with ×. Samples that were not evaluated are indicated with ND.

EC50 (Wnt/β-catenin signal [1]; 293STF cells expressing GPA33, Afamin/Wnt3a 883 ng/mL, 18 hr): 0.085 nM
EC50(MOG)/ EC50(GPA33) (Wnt/β-catenin signal [1]; ratio, NC assumed >30 nM): 47.53
EC50 (Wnt/β-catenin signal [2]): 4.04 nM
B1: R1CRD-hFcm-tCAP-G17: conjugate of azidized R1CRD-Fcm and DBCO-G17 scFv by tCAP and click reaction (conjugate)
chain: SRGIKGKRQRRISAEGSQACAKGCELCSEVNGCLKCSPKLFILLERNDIRQVGVCLPSCPPGYFDARNPDMNKCIKCKIEHCEACFSHNFCTKCKEGLYLHKGRCYPACPEGSSAANGTMECSSPAEPKSADKTHTCPPCPAPEAEGAPSVFLFPPKPKDTLMISRTPEVTCVVVDVSHEDPEVKFNWYVDGVEVHNAKTKPREEQYNSTYRVVSVLTVLHQDWLNGKEYKCAVSNKALPASIEKTISKAKGQPREPQVYTLPPSREEMTKNQVSLTCLVKGFYPSDIAVEWESNGQPENNYKTTPPVLDSDGSFFLYSKLTVDKSRWQQGNVFSCSVMHEALHNHYTQKSLSLSPGK
scFv: QMQLVQSGGGLVKPGGSLRLSCAASGFTFSSYNMNWVRQAPGKGLEWVSSISSSGDFMYYADSVKGRFTISRDNAKNSLYLQMSSLRAEDTAVYYCAREGPGTPFDYWGQGTLVTVSSGGGGSGGGGSGSTGSAIQLTQSPSSLSASVGDRVTITCRASQSISSFLNWYQHKPGKAPKLLIYVASSLQSGVPSRFSGSGSGTDFTLTISSLQPEDFATYYCQQSHNTPYTFGQGTKLEIKEPRTPRPCLVPRGSHHHHHHGA
organoid proliferation (Day 1 vs Day 5) ([3]; 0.2 ng/ml): ×
organoid proliferation (Day 1 vs Day 5) ([3]; 0.8 ng/ml): ×
organoid proliferation (Day 1 vs Day 5) ([3]; 1.4 ng/ml): ×
organoid proliferation (Day 1 vs Day 5) ([3]; 2 ng/ml): ×
organoid proliferation (Day 1 vs Day 5) ([3]; 20 ng/ml): Δ
organoid proliferation (Day 1 vs Day 5) ([3]; 100 ng/ml (conjugate section head, or cells marked *)): ○
organoid proliferation (Day 1 vs Day 5) ([3]; 1000 ng/ml): ○
